Test results reported in article PMC8094900.
Each block holds one substance with its values, some of them ahead of it.

Legend:
[1] = molecular target: Myrf N-terminal fragment (wild-type mouse Myrf) (mouse); assay: cold western blot (SDS-PAGE in a cold chamber); N-terminally Flag-tagged Myrf constructs expressed in Oli-neu cells; SDS-PAGE in a cold condition, membrane probed with Flag antibodies; ratio of trimeric to monomeric N-terminal fragment
[2] = molecular target: Myrf-L479V N-terminal fragment; assay: cold western blot (cold SDS-PAGE, Flag immunoblot); conditions: Flag-tagged constructs expressed in Oli-neu cells; SDS-PAGE in a cold condition; parent: est. 0.27; read off a plot
[3] = molecular target: Myrf-Q403H N-terminal fragment; assay: cold western blot (cold SDS-PAGE, Flag immunoblot); conditions: Flag-tagged constructs expressed in Oli-neu cells; SDS-PAGE in a cold condition; parent: est. 0.27; read off a plot
[4] = molecular target: Myrf-F387S N-terminal fragment; assay: cold western blot (cold SDS-PAGE, Flag immunoblot); conditions: Flag-tagged constructs expressed in Oli-neu cells; SDS-PAGE in a cold condition; parent: est. 0.27; read off a plot
[5] = molecular target: Myrf-G435R N-terminal fragment; assay: cold western blot (cold SDS-PAGE, Flag immunoblot); conditions: Flag-tagged constructs expressed in Oli-neu cells; SDS-PAGE in a cold condition; parent: est. 0.27; read off a plot

Chain of Myrf N-terminal fragment (wild-type mouse Myrf) (Q3UR85 whole entry, the tested form may be a part): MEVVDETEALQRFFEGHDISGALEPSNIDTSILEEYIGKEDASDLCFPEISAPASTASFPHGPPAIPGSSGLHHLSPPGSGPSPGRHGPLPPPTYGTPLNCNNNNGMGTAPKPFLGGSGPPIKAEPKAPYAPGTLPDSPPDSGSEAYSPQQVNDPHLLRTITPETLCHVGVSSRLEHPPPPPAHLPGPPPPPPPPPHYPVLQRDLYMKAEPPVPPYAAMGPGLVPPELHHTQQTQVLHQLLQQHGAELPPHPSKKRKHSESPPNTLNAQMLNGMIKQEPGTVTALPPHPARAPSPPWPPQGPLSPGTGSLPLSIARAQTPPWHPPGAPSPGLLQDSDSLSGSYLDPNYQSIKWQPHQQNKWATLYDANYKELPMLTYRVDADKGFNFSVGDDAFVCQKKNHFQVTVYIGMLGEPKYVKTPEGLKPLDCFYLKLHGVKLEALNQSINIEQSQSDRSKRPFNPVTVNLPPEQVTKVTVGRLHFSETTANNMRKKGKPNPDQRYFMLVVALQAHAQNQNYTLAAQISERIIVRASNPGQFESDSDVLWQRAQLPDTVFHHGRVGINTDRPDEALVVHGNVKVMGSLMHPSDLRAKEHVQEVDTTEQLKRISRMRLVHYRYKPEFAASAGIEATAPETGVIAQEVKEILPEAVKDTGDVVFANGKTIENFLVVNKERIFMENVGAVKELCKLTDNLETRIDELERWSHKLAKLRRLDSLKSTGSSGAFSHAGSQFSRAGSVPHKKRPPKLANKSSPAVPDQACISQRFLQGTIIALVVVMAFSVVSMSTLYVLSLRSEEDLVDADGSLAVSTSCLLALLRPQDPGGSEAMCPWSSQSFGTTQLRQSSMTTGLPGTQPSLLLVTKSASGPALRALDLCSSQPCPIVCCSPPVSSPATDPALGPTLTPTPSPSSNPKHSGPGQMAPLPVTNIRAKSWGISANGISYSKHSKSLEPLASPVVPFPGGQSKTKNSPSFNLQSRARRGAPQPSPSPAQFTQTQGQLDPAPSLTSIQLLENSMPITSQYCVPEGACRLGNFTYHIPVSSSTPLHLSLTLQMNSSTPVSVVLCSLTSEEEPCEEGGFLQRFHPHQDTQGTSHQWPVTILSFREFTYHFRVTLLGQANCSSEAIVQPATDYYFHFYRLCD

Substance: Myrf N-terminal fragment (wild-type mouse Myrf) (domain or fragment)
- stoichiometry N [1]: 3

Substance: Myrf N-terminal fragment (wild-type mouse Myrf) Q403H
- other: Trimer/(Trimer+Monomer) [3]: 0.08

Substance: Myrf N-terminal fragment (wild-type mouse Myrf) F387S
- other: Trimer/(Trimer+Monomer) [4]: 0.045

Continued, values first:

- other: Trimer/(Trimer+Monomer) [2]: 0.01
Substance: Myrf N-terminal fragment (wild-type mouse Myrf) L479V

- other: Trimer/(Trimer+Monomer) [5]: 0.02
Substance: Myrf N-terminal fragment (wild-type mouse Myrf) G435R
